{"source": "paper PMC4746669", "about": "“Attenuation of ligand-induced activation of angiotensin II type 1 receptor signaling by the type 2 receptor via protein kinase C” (Scientific Reports, 2016)", "parents": {"B1": {"name": "FLAG-AT2R-CFP (angiotensin II type 2 receptor) [human] / HA-AT1R-YFP (angiotensin II type 1 receptor) [human] (parent)", "chain 1": "MKGNSTLATTSKNITSGLHFGLVNISGNNESTLNCSQKPSDKHLDAIPILYYIIFVIGFLVNIVVVTLFCCQKGPKKVSSIYIFNLAVADLLLLATLPLWATYYSYRYDWLFGPVMCKVFGSFLTLNMFASIFFITCMSVDRYQSVIYPFLSQRRNPWQASYIVPLVWCMACLSSLPTFYFRDVRTIEYLGVNACIMAFPPEKYAQWSAGIALMKNILGFIIPLIFIATCYFGIRKHLLKTNSYGKNRITRDQVLKMAAAVVLAFIICWLPFHVLTFLDALAWMGVINSCEVIAVIDLALPFAILLGFTNSCVNPFLYCFVGNRFQQKLRSVFRVPITWLQGKRESMSCRKSSSLREMETFVS", "chain 2": "MILNSSTEDGIKRIQDDCPKAGRHNYIFVMIPTLYSIIFVVGIFGNSLVVIVIYFYMKLKTVASVFLLNLALADLCFLLTLPLWAVYTAMEYRWPFGNYLCKIASASVSFNLYASVFLLTCLSIDRYLAIVHPMKSRLRRTMLVAKVTCIIIWLLAGLASLPAIIHRNVFFIENTNITVCAFHYESQNSTLPIGLGLTKNILGFLFPFLIILTSYTLIWKALKKAYEIQKNKPRNDDIFKIIMAIVLFFFFSWIPHQIFTFLDVLIQLGIIRDCRIADIVDTAMPITICIAYFNNCLNPLFYGFLGKKFKRYFLQLLKYIPPKAKSHSNLSTKMSTLSYRPSDNVSSSTKKPAPCFEVE"}}}
{"variants_of": "B1", "assay": "FRET fluorescence microscopy in live HeLa cells (corrected FRET, FRETC)", "conditions": "with HA-AT1R-YFP (angiotensin II type 1 receptor) [human]; value read at the end of the time course (about 50 min after AII stimulation at time 0); HeLa cells 24 h after transfection; n = 4; parent: 1.3; read off a …"}
{"variant": "chain 1 MKGNSTLATTSKNITSGLHFGLVNISGNNESTLNCSQKPSDKHLDAIPILYYIIFVIGFLVNIVVVTLFCCQKGPKKVSSIYIFNLAVADLLLLATLPLWATYYSYRYDWLFGPVMCKVFGSFLTLNMFASIFFITCMSVDRYQSVIYPFLSQRRNPWQASYIVPLVWCMACLSSLPTFYFRDVRTIEYLGVNACIMAFPPEKYAQWSAGIALMKNILGFIIPLIFIATCYFGIRKHLLKTNSYGKNRITRDQVLKMAAAVVLAFIICWLPFHVLTFLDALAWMGVINSCEVIAVIDLALPFAILLGFTNSCVNPFLYCFVGNRFQQKLRSVFRVPITWLQGKRESMSCRKAAALREMETFVS", "note": "[chain 1 S352A S353A S354A]", "response": "0.97 -fold"}
